In this assay the target is ORF59HA full-length (KSHV DNA polymerase processivity factor ORF59 with an in-frame HA tag, from iSLK.BAC16-ORF59HA) (Kaposi's sarcoma-associated herpesvirus (KSHV, human herpesvirus 8), BAC16).
ORF59HA full-length (KSHV DNA polymerase processivity factor ORF59 with an in-frame HA tag, from iSLK.BAC16-ORF59HA) (Kaposi's sarcoma-associated herpesvirus (KSHV, human herpesvirus 8), BAC16), sequence (F5HID2 whole entry): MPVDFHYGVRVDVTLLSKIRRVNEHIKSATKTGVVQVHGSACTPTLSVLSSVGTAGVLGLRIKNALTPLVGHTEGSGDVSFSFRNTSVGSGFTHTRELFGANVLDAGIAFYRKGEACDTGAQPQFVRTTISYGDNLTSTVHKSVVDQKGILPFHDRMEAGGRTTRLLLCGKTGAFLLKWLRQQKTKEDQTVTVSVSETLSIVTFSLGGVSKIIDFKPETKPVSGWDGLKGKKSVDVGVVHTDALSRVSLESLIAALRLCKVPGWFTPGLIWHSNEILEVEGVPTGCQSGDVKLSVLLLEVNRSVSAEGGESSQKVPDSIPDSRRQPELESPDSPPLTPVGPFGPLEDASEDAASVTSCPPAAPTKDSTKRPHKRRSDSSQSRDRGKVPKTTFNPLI

B1: ORF57 (KSHV mRNA transcript accumulation protein, MTA) (natural protein)
chain: MVQAMIDMDIMKGILEDSVSSSEFDESRDDETDAPTLEDEQLSEPAEPPADERIRGTQSAQGIPPPLGRIPKKSQGRSQLRSEIQFCSPLSRPRSPSPVNRYGKKIKFGTAGQNTRPPPEKRPRRRPRDRLQYGRTTRGGQCRAAPKRATRRPQVNCQRQDDDVRQGVSDAVKKLRLPASMIIDGESPRFDDSIIPRHHGACFNVFIPAPPSHVPEVFTDRDITALIRAGGKDDELINKKISAKKIDHLHRQMLSFVTSRHNQAYWVSCRRETAAAGGLQTLGAFVEEQMTWAQTVVRHGGWFDEKDIDIILDTAIFVCNAFVTRFRLLHLSCVFDKQSELALIKQVAYLVAMGNRLVEACNLLGEVKLNFRGGLLLAFVLTIPGMQSRRSISARGQELFRTLLEYYRPGDVMGLLNVIVMEHHSLCRNSECAAATRAAMGSAKFNKGLFFYPLS
B1 showed a viral DNA accumulation (qPCR of ORF26, 72 hpi) in 59HA-WT iSLK cells transfected with 30–100DsRed, against control cells of 5 fold.

For the origin of these results see paper PMC11619453.
